Our source for the binding values is article PMC3315491.

This data set addresses T1, EspR (UniProt P9WJB7).
T1 sequence: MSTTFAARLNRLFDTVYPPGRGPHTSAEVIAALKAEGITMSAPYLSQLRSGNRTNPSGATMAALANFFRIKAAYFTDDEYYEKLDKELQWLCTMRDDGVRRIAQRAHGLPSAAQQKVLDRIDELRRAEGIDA
Description: EMSA. (Mobility shift assays separate free from complexed probe on a gel.)

On to “GCTCATCGATGTGACCTCCACCGGGCTCCAAGAGCAAACGGTTATCTGTATGTATTTGCTGATCATGGTAGCGACAGTTGTGTCCACAACCAAGTGCAAACCTGAGCGGATT (double strand) [espR peak a EMSA probe]”, for which the binding result is on record as “binds”.
Then “GAAAACCGCCCCAGTTGCGGTGTGCGCTAGTTAACATCGCAACTACATATCAGCAAATCAGGGAGAGGAAACCGTGTCGTTTGTGTTGGTGTCTCCGTCGCA (double strand) [pe_pgrs19 peak probe]”, with “binds”.
For “TCAGGATGACCGTGTCGGGCGGATGCGGCCGACTCCGGGCAACCAGCAGCCAACGGAGATTCGCCGAGAGCCTCCTTTGCTGCCTGGGTCCGCACAGCGCTCGTCAGGCGA (double strand) [espR peak b EMSA probe]”, the binding entry is “binds”.
To “GCTTGTCCCAAAGCTCTTTCAGGCCGTTGAGCGCGTTTGTGATGAACTCCCACACTTCTCCGAGGGTGCCCTTGATGATGTCCGCCACATCCGAAATGAT (double strand) [espA ORF negative control probe]” belongs “no binding”; to “ACCTCAACGACAATTTGCCAGAGCTAGTCAGCGACATAGAAGACAAAACACTCCAATGGCATGATCGAGCTTAGCTATGCTCCGGATGTAGCTGGCCGAAGAT (double strand) [rv2929 peak probe]”, “binds”; to “ACTTGAGTTCTTCAGCAATGATGCATGCACGACTGTAGACCTGCGACCAAGTCAAGCTGTCAGCAAATCCCTTGGGGTCGGATCCGTAGTCGATGTACGTATATGCAGTGCTGTCAGGCT (double strand) [fadD26 peak probe]”, “binds more weakly”.
To “TGCGTCGGTTAGTCTCTTTTTCGACCTTGGGGCGCGGAGGGTCGTTATGGTGTGTCACAGTGCTTTGCTGTCAAAGGCATTGGCGGTGCCGACCAAGCGACACT (double strand) [rv1490 peak probe]” belongs “binds”.
